Patent US20130177981A1 (WISCONSIN ALUMNI RESEARCH FOUNDATION, published 2013)
Like-named read-outs stand apart in the source and are kept apart here. [ ]: non-standard residue; d: D form. APC = trans-3-aminopyrrolidine-4-carboxylic acid; ACPC = trans-2-aminocyclopentanecarboxylic acid; β3hT = C[C@@H](O)[C@H](N)CC(=O)O; β3hE = N[C@@H](CCC(=O)O)CC(=O)O

Experiments:
gp41-5 [1] = target: T1, gp41-5 (HIV); assay: competition FP; displacement of Flu-C38 from gp41-5
T1 construct: also called gp41-5 protein construct; five-helix bundle protein

gp41-5 [2] = target: T1, gp41-5; assay: as above; remark: listed apart in the source

Row | Binder | Ki (gp41-5 [1]) [pM] | Ki (gp41-5 [2]) [pM]
1 | Ac-TTWEAWDRAIAEYA[ACPC]RIE[ACPC]LI[APC]AAQ[β3hE]QQ[β3hE]KNE[ACPC]AL[APC]EL-NH2 (not fully specified, Made from 7 by replacing two β3-hArg residues with APC) [chimeric CHR α/β-peptide 8] | 300 | –
2 | Ac-TTWEAWD[APC]AIA[β3hE]YA[ACPC]RIE[ACPC]LI[APC]AAQ[β3hE]QQ[β3hE]KNE[ACPC]AL[APC]EL-NH2 (not fully specified, also called compound 12; peptide 12) [chimeric α+α/β foldamer 12] | – | 8000
3 | Ac-TTWEAWDRAIA[β3hE]YA[ACPC]RIE[ACPC]LI[APC]AAQ[β3hE]QQ[β3hE]KNE[ACPC]AL[APC]EL-NH2 (not fully specified, the difference must lie in β3-residues whose bold type is lost; also called compound 13; peptide 13) [chimeric α+α/β foldamer 13] | – | 800
4 | Ac-[β3hT]TWE[ACPC]WD[APC]AIA[β3hE]YAARIEALIRAAQ[β3hE]QQ[β3hE]KNE[ACPC]AL[APC]EL-NH2 (not fully specified, also called compound 14) [chimeric α+α/β foldamer 14] | – | 1400
5 | Ac-[β3hT]TWE[ACPC]WD[APC]AIA[β3hE]YA[ACPC]RIE[ACPC]LI[APC]AAQEQQEKNEAALREL-NH2 (not fully specified, also called compound 15) [chimeric α+α/β foldamer 15] | – | 200
